Measurements: patent publication US20070105771A1 (Y S THERAPEUTICS, published 2007)

Tests used:
[1] = molecular target: T1, human CD26-derived 13 mer peptide 39 (human); experiment: peptide microarray
T1 peptide: WRHSYTASYDIYD
Description: (§1) The overnight incubation was followed by three washings with each of PBS buffer pH 7.5 and water. The microarrays were then scanned using ArrayWorx-Microarray Scanner.
(§2) The SPOT recognition software package ArrayPro was used for data analysis. The mean of signal intensities from 3 identical subarrays on each microarray image was used for data evaluation.

[2] = molecular target: T2, human CD26-derived 13 mer peptide 54 (human); experiment: peptide microarray
T2 peptide: WVTWSPVGHKLAY
Description: as §1, §2

[3] = molecular target: T3, human CD26-derived 13 mer peptide 99 (human); experiment: peptide microarray
T3 peptide: ESLQYPKTVRVPY
Description: as §1, §2

[4] = molecular target: T4, human CD26-derived 13 mer peptide 129 (human); experiment: peptide microarray
T4 peptide: TWATQERISLQWL
Description: as §1, §2

[5] = molecular target: T5, human CD26-derived 13 mer peptide 110 (human); experiment: peptide microarray
T5 peptide: VKFFVVNTDSLSS
Description: as §1, §2

[6] = molecular target: T6, human CD26-derived 13 mer peptide 55 (human); experiment: peptide microarray
T6 peptide: TWSPVGHKLAYVW
Description: as §1, §2

[7] = molecular target: T7, human CD26-derived 13 mer peptide 115 (human); experiment: peptide microarray
T7 peptide: LSSVTNATSIQIT
Description: as §1, §2

[8] = molecular target: T8, human CD26-derived 13 mer peptide 21 (human); experiment: peptide microarray
T8 peptide: VFLENSTFDEFGH
Description: as §1, §2

[9] = molecular target: T9, human CD26-derived 13 mer peptide 71 (human); experiment: peptide microarray
T9 peptide: TGKEDIIYNGITD
Description: as §1, §2

[10] = molecular target: T10, human CD26-derived 13 mer peptide 84 (human); experiment: peptide microarray
T10 peptide: LWWSPNGTFLAYA
Description: as §1, §2

[11] = molecular target: T11, human CD26-derived 13 mer peptide 61 (human); experiment: peptide microarray
T11 peptide: WNNDIYVKIEPNL
Description: as §1, §2

[12] = molecular target: T12, human CD26-derived 13 mer peptide 120 (human); experiment: peptide microarray
T12 peptide: QITAPASMLIGDH
Description: as §1, §2

[13] = molecular target: T13, human CD26-derived 13 mer peptide 131 (human); experiment: peptide microarray
T13 peptide: QERISLQWLRRIQ
Description: as §1, §2

[14] = molecular target: T14, human CD26-derived 13 mer peptide 43 (human); experiment: peptide microarray
T14 peptide: YDIYDLNKRQLIT
Description: as §1, §2

[15] = molecular target: T15, human CD26-derived 13 mer peptide 68 (human); experiment: peptide microarray
T15 peptide: SYRITWTGKEDII
Description: as §1, §2

[16] = molecular target: T16, human CD26-derived 13 mer peptide 76 (human); experiment: peptide microarray
T16 peptide: ITDWVYEEEVFSA
Description: as §1, §2

[17] = molecular target: T17, human CD26-derived 13 mer peptide 122 (human); experiment: peptide microarray
T17 peptide: PASMLIGDHYLCD
Description: as §1, §2

[18] = molecular target: T18, human CD26-derived 13 mer peptide 59 (human); experiment: peptide microarray
T18 peptide: LAYVWNNDIYVKI
Description: as §1, §2

[19] = molecular target: T19, human CD26-derived 13 mer peptide 79 (human); experiment: peptide microarray
T19 peptide: EEEVFSAYSALWW
Description: as §1, §2

[20] = molecular target: T20, human CD26-derived 13 mer peptide 103 (human); experiment: peptide microarray
T20 peptide: VRVPYPKAGAVNP
Description: as §1, §2

[21] = molecular target: T21, human CD26-derived 13 mer peptide 2 (human); experiment: peptide microarray
T21 peptide: KNTYRLKLYSLRW
Description: as §1, §2

[22] = molecular target: T22, human CD26-derived 13 mer peptide 58 (human); experiment: peptide microarray
T22 peptide: HKLAYVWNNDIYV
Description: as §1, §2

[23] = molecular target: T23, human CD26-derived 13 mer peptide 8 (human); experiment: peptide microarray
T23 peptide: WISDHEYLYKQEN
Description: as §1, §2

[24] = molecular target: T24, human CD26-derived 13 mer peptide 90 (human); experiment: peptide microarray
T24 peptide: AQFNDTEVPLIEY
Description: as §1, §2

[25] = molecular target: T25, human CD26-derived 13 mer peptide 119 (human); experiment: peptide microarray
T25 peptide: SIQITAPASMLIG
Description: as §1, §2

[26] = molecular target: T26, human CD26-derived 13 mer peptide 11 (human); experiment: peptide microarray
T26 peptide: YLYKQENNILVFN
Description: as §1, §2

[27] = molecular target: T27, human CD26-derived 13 mer peptide 25 (human); experiment: peptide microarray
T27 peptide: DEFGHSINDYSIS
Description: as §1, §2

[28] = molecular target: T28, human CD26-derived 13 mer peptide 111 (human); experiment: peptide microarray
T28 peptide: FFVVNTDSLSSVT
Description: as §1, §2

[29] = molecular target: T29, human CD26-derived 13 mer peptide 32 (human); experiment: peptide microarray
T29 peptide: DGQFILLEYNYVK
Description: as §1, §2

[30] = molecular target: T30, human CD26-derived 13 mer peptide 64 (human); experiment: peptide microarray
T30 peptide: VKIEPNLPSYRIT
Description: as §1, §2

[31] = molecular target: T31, human CD26-derived 13 mer peptide 27 (human); experiment: peptide microarray
T31 peptide: HSINDYSISPDGQ
Description: as §1, §2

[32] = molecular target: T32, human CD26-derived 13 mer peptide 65 (human); experiment: peptide microarray
T32 peptide: IEPNLPSYRITWT
Description: as §1, §2

[33] = molecular target: T33, human CD26-derived 13 mer peptide 86 (human); experiment: peptide microarray
T33 peptide: PNGTFLAYAQFND
Description: as §1, §2

[34] = molecular target: T34, human CD26-derived 13 mer peptide 41 (human); experiment: peptide microarray
T34 peptide: YTASYDIYDLNKR
Description: as §1, §2

[35] = molecular target: T35, human CD26-derived 13 mer peptide 22 (human); experiment: peptide microarray
T35 peptide: LENSTFDEFGHSI
Description: as §1, §2

[36] = molecular target: T36, human CD26-derived 13 mer peptide 48 (human); experiment: peptide microarray
T36 peptide: LITEERIPNNTQW
Description: as §1, §2

[37] = molecular target: T37, human CD26-derived 13 mer peptide 95 (human); experiment: peptide microarray
T37 peptide: IEYSFYSDESLQY
Description: as §1, §2

[38] = molecular target: T38, human CD26-derived 13 mer peptide 9 (human); experiment: peptide microarray
T38 peptide: SDHEYLYKQENNI
Description: as §1, §2

[39] = molecular target: T39, human CD26-derived 13 mer peptide 105 (human); experiment: peptide microarray
T39 peptide: YPKAGAVNPTVKF
Description: as §1, §2

[40] = molecular target: T40, human CD26-derived 13 mer peptide 128 (human); experiment: peptide microarray
T40 peptide: DVTWATQERISLQ
Description: as §1, §2

[41] = molecular target: T41, Purified recombinant human CD26 (rhDipeptidyl peptidase IV), R&D Systems CAT #1180-SE (human, UniProt P27487 29-766); experiment: SPR (Biacore)
T41 construct: Bought recombinant protein; also called hu-CD26; soluble human CD26
T41 sequence (P27487 29-766 limits assumed): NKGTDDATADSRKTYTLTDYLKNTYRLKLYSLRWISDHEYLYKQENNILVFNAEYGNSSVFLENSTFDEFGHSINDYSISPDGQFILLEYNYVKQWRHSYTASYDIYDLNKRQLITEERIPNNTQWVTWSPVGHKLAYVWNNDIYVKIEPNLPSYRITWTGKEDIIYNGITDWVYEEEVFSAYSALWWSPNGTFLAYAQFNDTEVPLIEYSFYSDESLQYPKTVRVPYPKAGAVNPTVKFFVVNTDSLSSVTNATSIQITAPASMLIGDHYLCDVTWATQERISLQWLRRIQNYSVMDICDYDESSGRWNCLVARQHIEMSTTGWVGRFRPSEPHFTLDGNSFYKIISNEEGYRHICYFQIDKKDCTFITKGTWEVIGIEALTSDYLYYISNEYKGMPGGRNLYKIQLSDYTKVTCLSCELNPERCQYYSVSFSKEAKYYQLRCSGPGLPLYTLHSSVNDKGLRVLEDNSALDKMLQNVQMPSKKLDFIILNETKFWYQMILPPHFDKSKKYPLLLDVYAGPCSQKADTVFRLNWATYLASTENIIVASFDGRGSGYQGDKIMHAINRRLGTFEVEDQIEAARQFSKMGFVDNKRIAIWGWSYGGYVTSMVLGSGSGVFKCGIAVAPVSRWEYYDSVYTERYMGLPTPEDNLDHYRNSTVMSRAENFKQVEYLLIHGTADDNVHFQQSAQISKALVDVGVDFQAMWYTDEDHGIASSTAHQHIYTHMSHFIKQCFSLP

B1: rhuMAb 411 (antibody, human IgG1, kappa, V domains shown)
VH: EVQLVESGAGVKQPGGTLRLTCTASGFSLTTYGVHWVRQAPGKGLEWVGVIWGDGRTDYDAAFMSRVTISKDTSKSTVYLQMNSLRAEDTAVYYCMRNRHDWFDYWGQGTTVTVSS
VL: DILLTQSPSSLSATPGERATITCRASQGIRNNLNWYQQKPGQAPRLLIYYSSNLQSGVPSRFSGSGSGTDFTLTISRLQPEDVAAYYCQQSIKLPFTFGSGTKVEIKR
notes: also called X411
- Mean Signal Value [1]: 55.7
- Mean Signal Value [2]: 13
- Mean Signal Value [3]: 0.0865
- Mean Signal Value [4]: 23.3
- Mean Signal Value [5]: 0.024
- Mean Signal Value [6]: 124
- Mean Signal Value [7]: 0.0673
- Mean Signal Value [8]: 0.197
- Mean Signal Value [9]: 0
- Mean Signal Value [10]: 17.2
- Mean Signal Value [11]: 0.0385
- Mean Signal Value [12]: 0.0337
- Mean Signal Value [13]: 5.25
- Mean Signal Value [14]: 0
- Mean Signal Value [15]: 0
- Mean Signal Value [16]: 0.0337
- Mean Signal Value [17]: 0.308
- Mean Signal Value [18]: 0.683
- Mean Signal Value [19]: 96.4
- Mean Signal Value [20]: 0
- Mean Signal Value [21]: 16.5
- Mean Signal Value [22]: 33.8
- Mean Signal Value [23]: 0.736
- Mean Signal Value [24]: 0
- Mean Signal Value [25]: 0.024
- Mean Signal Value [26]: 5.78
- Mean Signal Value [27]: 0
- Mean Signal Value [28]: 0
- Mean Signal Value [29]: 0.0192
- Mean Signal Value [30]: 0.438
- Mean Signal Value [31]: 0.00481
- Mean Signal Value [32]: 40.8
- Mean Signal Value [33]: 0.524
- Mean Signal Value [34]: 0.0673
- Mean Signal Value [35]: 0.0192
- Mean Signal Value [36]: 12.1
- Mean Signal Value [37]: 6.14
- Mean Signal Value [38]: 0.0673
- Mean Signal Value [39]: 0
- Mean Signal Value [40]: 0.106
- Kd [41]: 0.244 nM
- koff [41]: 6.63e-05 s⁻¹
- kon [41]: 272000 M⁻¹ s⁻¹
